# Measured values published in FireProtDB (doi:10.1021/bi982158q).
# B1: Cytochrome b5 wild type, P00171 (protein)
# chain: MAEESSKAVKYYTLEEIQKHNNSKSTWLILHYKVYDLTKFLEEHPGGEEVLREQAGGDATENFEDVGHSTDARELSKTFIIGELHPDDRSKITKPSESIITTIDSNPSWWTNWLIPAISALFVALIYHLYTSEN
# Conditions: Bos taurus, pH 7, K2HPO4 5 mM, transition: 2, reversible: Yes, whole UniProt chain shown; for Tm: Thermal
protein,measurement,setting,value
B1,denaturant m value,"25 °C, Urea, Absorbance",1.26 kcal/mol/M
same,denaturant midpoint (higher = more stable),"25 °C, Urea, Absorbance",6.9 M
same,unfolding free energy,"25 °C, Urea, Absorbance",8.7 kcal/mol
same,Tm,Absorbance,75.2 °C
same,Tm,Fluorescence,50.1 °C
